Like-named read-outs stand apart in the source and are kept apart here.
Legend:
rhTSLP-hFc (human) [1] = test: cell-based or functional assay
rhTSLP-hFc (human) [2] = test: cell-based or functional assay; remark: listed apart in the source

Sequence of rhTSLP-hFc (human) (chain, as listed by the source limits assumed): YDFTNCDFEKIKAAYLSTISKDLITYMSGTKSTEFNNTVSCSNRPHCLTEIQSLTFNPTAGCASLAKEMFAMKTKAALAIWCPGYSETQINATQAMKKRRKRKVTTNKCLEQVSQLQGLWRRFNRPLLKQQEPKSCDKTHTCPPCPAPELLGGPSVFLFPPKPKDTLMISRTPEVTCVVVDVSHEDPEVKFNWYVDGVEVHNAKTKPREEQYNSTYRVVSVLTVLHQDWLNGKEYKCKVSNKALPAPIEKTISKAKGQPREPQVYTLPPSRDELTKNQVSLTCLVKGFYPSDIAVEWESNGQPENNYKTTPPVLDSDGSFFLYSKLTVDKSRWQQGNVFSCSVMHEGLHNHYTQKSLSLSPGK

IC50, 抑制TSLP刺激的293F转染细胞STAT5-荧光素酶活性 (rhTSLP-hFc (human) [1]): 5.72 µg/mL
IC50, 抑制TSLP刺激的293F转染细胞STAT5-荧光素酶活性 (rhTSLP-hFc (human) [2]): 7.04 µg/mL
Substance: 人TSLP单抗Tezepelumab/MEDI9929(Amgen) (antibody)
